pKd: −log10 of the molar value.
What was measured:
Assay in all cases: EMSA
Conditions in all cases: EMSA: 0.5 nM DNA duplex, 20 uL, 10 mM Tris-HCl pH 7.6, 5 mM DTT, 10% (component cut off in material), no NaCl; temperature not in material
C145S hAGT (human) = test system: C145S hAGT (human)
[1] = test system: OGT (wild type) (Escherichia coli)
[2] = test system: S134P OGT (Escherichia coli)

Control (G-C)
pKd (C145S hAGT (human)): 4.97
pKd [1]: 5.91
pKd [2]: 6.07

From publication PMC6150290
